In paper PMC4570275:

Molecular target: Glucocorticoid-induced TNFR-related protein (GITR) (mouse (endogenous in CD4+ T cells of mice)) (UniProt O35714)
Chain of UniProt O35714 (O35714 20-228): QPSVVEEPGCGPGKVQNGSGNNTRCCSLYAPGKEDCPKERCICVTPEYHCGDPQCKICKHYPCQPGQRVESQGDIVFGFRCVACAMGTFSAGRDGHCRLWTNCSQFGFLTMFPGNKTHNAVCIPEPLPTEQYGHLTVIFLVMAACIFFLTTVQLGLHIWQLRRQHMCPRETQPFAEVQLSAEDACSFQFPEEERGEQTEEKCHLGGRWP

percent Foxp3+ T cells by flow cytometry: OT-II CD4+ T cells activated with OVA and autologous APCs, TGF-β and IL-2, 3 days; >60% without GITR stimulation: 10%
percent Foxp3+ T cells by flow cytometry: WT B6 naive CD4+ T cells activated 3 days under iTreg-polarizing conditions with His-GITR Ligand (200 ng/ml plus anti-His mAb); ∼65% without GITR ligation: 4%
percent IL-9+ Th9 cells by flow cytometry: WT B6 naive CD4+ T cells activated 3 days under iTreg-polarizing conditions with GITR ligation: 30%
Substance: His-tagged recombinant mouse GITR Ligand (from UniProt Q7TS55 1-173)
